Target: T1, Intimin-spike fusion protein (Intimin-Spike-RBD) surface displayed on E. coli Nissle 1917 (SARS-CoV-2)
T1 construct: also called pInt-spike; pInt-Spike-RBD
Assay: cell aggregation assay (OD600) of nanobody-bearing EcN with spike-bearing EcN

B1: Lpp-OmpA-VHH72 nanobody (pLpp-OmpA-VHH72), surface displayed on E. coli Nissle 1917 or on its OMVs (VHH)
chain: CSSNAKIDQGINNNGPTHENQLGAGAFGGYQVNPYVGFEMGYDWLGRMPYKGSVENGAYKAQGVQLTAKLGYPITDDLDIYTRLGGMVWRADTKSNVYGKNHDTGVSPVFAGGVEYAITPEIATRKLENLYFQGTRQVQLQESGGGLVQAGGSLRLSCAASGRTFSEYAMGWFRQAPGKEREFVATISWSGGSTYYTDSVKGRFTISRDNAKNTVYLQMNSLKPDDTAVYYCAAAGLGTVVSEWDYDYDYWGQGTQVTVSSGSGSENLYFQGDYKDDDDKWSHPQFEKSR
notes: also called pLpp-OmpA-VHH72 Nb; Lpp-OmpA-VHH72 Nb
binding result: no binding

From patent publication US20250213666A1 (UNIVERSITY OF CINCINNATI, published 2025)
